B1: RORg: RAR-related Orphan Receptor γ (NR1F3), cDNA driver (protein, UniProt P51449 1-518, looked up)
Nuclear receptor ROR-gamma: MDRAPQRQHRASRELLAAKKTHTSQIEVIPCKICGDKSSGIHYGVITCEGCKGFFRRSQRCNAAYSCTRQQNCPIDRTSRNRCQHCRLQKCLALGMSRDAVKFGRMSKKQRDSLHAEVQKQLQQRQQQQQEPVVKTPPAGAQGADTLTYTLGLPDGQLPLGSSPDLPEASACPPGLLKASGSGPSYSNNLAKAGLNGASCHLEYSPERGKAEGRESFYSTGSQLTPDRCGLRFEEHRHPGLGELGQGPDSYGSPSFRSTPEAPYASLTEIEHLVQSVCKSYRETCQLRLEDLLRQRSNIFSREEVTGYQRKSMWEMWERCAHHLTEAIQYVVEFAKRLSGFMELCQNDQIVLLKAGAMEVVLVRMCRAYNADNRTVFFEGKYGGMELFRALGCSELISSIFDFSHSLSALHFSEDEIALYTALVLINAHRPGLQEKRKVEQLQYNLELAFHHHLCKTHRQSILAKLPPKGKLRSLCSQHVERLQIFQHLHPIVVQAAFPPLYKELFSTETESPVGLSK
B2: RVRa: Rev-Erb α (NR1D1), cDNA driver (protein, UniProt P20393 1-614, looked up)
Nuclear receptor subfamily 1 …: MTTLDSNNNTGGVITYIGSSGSSPSRTSPESLYSDNSNGSFQSLTQGCPTYFPPSPTGSLTQDPARSFGSIPPSLSDDGSPSSSSSSSSSSSSFYNGSPPGSLQVAMEDSSRVSPSKSTSNITKLNGMVLLCKVCGDVASGFHYGVHACEGCKGFFRRSIQQNIQYKRCLKNENCSIVRINRNRCQQCRFKKCLSVGMSRDAVRFGRIPKREKQRMLAEMQSAMNLANNQLSSQCPLETSPTQHPTPGPMGPSPPPAPVPSPLVGFSQFPQQLTPPRSPSPEPTVEDVISQVARAHREIFTYAHDKLGSSPGNFNANHASGSPPATTPHRWENQGCPPAPNDNNTLAAQRHNEALNGLRQAPSSYPPTWPPGPAHHSCHQSNSNGHRLCPTHVYAAPEGKAPANSPRQGNSKNVLLACPMNMYPHGRSGRTVQEIWEDFSMSFTPAVREVVEFAKHIPGFRDLSQHDQVTLLKAGTFEVLMVRFASLFNVKDQTVMFLSRTTYSLQELGAMGMGDLLSAMFDFSEKLNSLALTEEELGLFTAVVLVSADRSGMENSASVEQLQETLLRALRALVLKNRPLETSRFTKLLLKLPDLRTLNNMHSEKLLSFRVDAQ
B3: LXRb: Liver X Receptor β (NR1H2), cDNA driver (protein, UniProt P55055 1-460, looked up)
Oxysterols receptor LXR-beta: MSSPTTSSLDTPLPGNGPPQPGAPSSSPTVKEEGPEPWPGGPDPDVPGTDEASSACSTDWVIPDPEEEPERKRKKGPAPKMLGHELCRVCGDKASGFHYNVLSCEGCKGFFRRSVVRGGARRYACRGGGTCQMDAFMRRKCQQCRLRKCKEAGMREQCVLSEEQIRKKKIRKQQQESQSQSQSPVGPQGSSSSASGPGASPGGSEAGSQGSGEGEGVQLTAAQELMIQQLVAAQLQCNKRSFSDQPKVTPWPLGADPQSRDARQQRFAHFTELAIISVQEIVDFAKQVPGFLQLGREDQIALLKASTIEIMLLETARRYNHETECITFLKDFTYSKDDFHRAGLQVEFINPIFEFSRAMRRLGLDDAEYALLIAINIFSADRPNVQEPGRVEALQQPYVEALLSYTRIKRPQDQLRFPRMLMKLVSLRTLSSVHSEQVFALRLQDKKLPPLLSEIWDVHE
B4: RORa: RAR-related Orphan Receptor α (NR1F1), cDNA driver (protein, UniProt P35398 1-523, looked up)
Nuclear receptor ROR-alpha: MESAPAAPDPAASEPGSSGADAAAGSRETPLNQESARKSEPPAPVRRQSYSSTSRGISVTKKTHTSQIEIIPCKICGDKSSGIHYGVITCEGCKGFFRRSQQSNATYSCPRQKNCLIDRTSRNRCQHCRLQKCLAVGMSRDAVKFGRMSKKQRDSLYAEVQKHRMQQQQRDHQQQPGEAEPLTPTYNISANGLTELHDDLSNYIDGHTPEGSKADSAVSSFYLDIQPSPDQSGLDINGIKPEPICDYTPASGFFPYCSFTNGETSPTVSMAELEHLAQNISKSHLETCQYLREELQQITWQTFLQEEIENYQNKQREVMWQLCAIKITEAIQYVVEFAKRIDGFMELCQNDQIVLLKAGSLEVVFIRMCRAFDSQNNTVYFDGKYASPDVFKSLGCEDFISFVFEFGKSLCSMHLTEDEIALFSAFVLMSADRSWLQEKVKIEKLQQKIQLALQHVLQKNHREDGILTKLICKVSTLRALCGRHTEKLMAFKAIYPDIVRLHFPPLYKELFTSEFEPAMQIDG

Experiments:
[1] = tested on: hCAR promoter; assay: NHR-promoter luciferase screen, hCAR promoter; format: cell-based, human; conditions: for luciferase activity normalized to lacZ activity and to a control, hCAR: hCAR promoter-luciferase, CV-1 cells, NHR +/- ligand, control = 1.00; for Luc. act., normalized to lacZ / Normalized Luc. act., normalized to control: hCAR promoter, HR/ligand component
Protocol: (§1) The use, feasibility, and reproducibility of the functional NHR-promoter screen in a 48-well format have been tested validated. Briefly, there were co-expressed 50 ng of each NHR/NHR homodimer or NHR/RXR heterodimer with 100 ng promoter/luciferase construct and 50 ng of LacZ (as a control for transfection efficiency) in CV-1 cells using Fugene HD (Roche) as a transfection reagent (alternatively or additionally, a CMV-YFP construct can be used as a transfection control). Each of the nuclear hormone receptors that were used in these experiments was cloned into a pcDNA3.1 vector and comprised a C-terminally linked V5H6 tag. Twenty-four hours after transfection, appropriate ligands were added, where applicable, (see Table 5 for various ligands and concentrations and after 48 hrs, samples were assayed for luciferase and LacZ activity. To measure for luciferase activity 15 ul of sample was added to 30 ul of luciferase buffer (20 mM tricine, 1.07 mM MgCarbonate, 2.67 mM MgSulfate, 0.1 mM Naz-EDTA, 5 mM DTT, 5 mM ATP, 0.15 mg/ml CoA, 0.5 mM Luciferin), mixed briefly, and run in a Perkin Elmer Victor 5 luminometer. Thus, the functional NHR-promoter screen was used to observe the transcriptional activity of 29 promoters from various physiological pathways including inflammation, lipid and sugar metabolism, cholesterol transport, xenobiotic metabolism, and circadian rhythm.
(§2) The promoters that facilitate transcription of the indicated gene products that were tested using the protocols described herein are listed in the first row of the table. The nuclear hormone receptors and, where applicable, ligands that were assayed for their transcriptional effects on the promoters are listed in the first column of the table. The data represent the luciferase activity of each sample normalized to both the lacZ activity of that sample and to a control, e.g., no NHR or ligand, as customary in the art. As described previously, these normalizations allow the transcriptional activity of each reporter cell to be compared to other samples.
(§3) Tables 7-40 show the transcriptional effects of the hormone receptors, and, where applicable, ligands (orphan receptors are screened without ligand), on each individual promoter. […] The control data of each table are shown in their last rows.

[2] = tested on: hMyoD promoter; assay: NHR-promoter luciferase screen, hMyoD promoter; format: cell-based, human; conditions: for Luc. act., normalized to lacZ / Normalized Luc. act., normalized to control: MyoD promoter reporter, co-transfected HR, without or with its ligand; for Normalized Luc. act., normalized to control: relative to control; for luciferase activity normalized to lacZ activity and to a control, hMyoD: hMyoD promoter-luciferase, CV-1 cells, NHR +/- ligand, control = 1.00
Protocol: as §1, §2, §3

[3] = tested on: mNPY promoter; assay: NHR-promoter luciferase screen, mNPY promoter; format: cell-based, mouse; conditions: for Results of assays of transcription factor (+/- ligand) with mNPY: Table 6d, luciferase activity relative to control (control = 1.00); for Luc. act., normalized to lacZ / Normalized Luc. act., normalized to control: mNPY promoter, HR component with or without ligand; for Normalized Luc. act., normalized to control: relative to control
Protocol: as §1, §2, §3

[4] = tested on: mUCP3 promoter; assay: NHR-promoter luciferase screen, mUCP3 promoter; format: cell-based, mouse; conditions: for Normalized Luc. act., normalized to control / Luc. act., normalized to lacZ: mUCP3 promoter reporter; for Normalized Luc. act., normalized to control: HR without or with its ligand, relative to control; for Luc. act., normalized to lacZ: hormone receptor (HR) without or with its ligand; for mUCP3 promoter reporter activity: transcription factor +/- ligand, control = 1.00
Protocol: as §1, §2, §3

[5] = tested on: mDio2 promoter; assay: NHR-promoter luciferase screen, mDio2 promoter; format: cell-based, mouse; conditions: for Luc. act., normalized to lacZ / Normalized Luc. act., normalized to control: Dio2, HR component without or with its ligand; for mDio2 promoter reporter activity: transcription factor +/- ligand, control = 1.00
Protocol: as §1, §2, §3

[6] = tested on: mABCA1 promoter; assay: NHR-promoter luciferase screen, mABCA1 promoter; format: cell-based, mouse; conditions: for Luc. act., normalized to lacZ / Normalized Luc. act., normalized to control: ABCA1 promoter, hormone receptor with or without its ligand; for Normalized Luc. act., normalized to control: relative to control; for mABCA1 promoter reporter activity: transcription factor +/- ligand, control = 1.00
Protocol: as §1, §2, §3

Row | Molecule | luciferase activity normalized to lacZ activity and to a control, hCAR [1] | Luc. act., normalized to lacZ [1] | Normalized Luc. act., normalized to control [1] | Luc. act., normalized to lacZ [2] | Normalized Luc. act., normalized to control [2] | luciferase activity normalized to lacZ activity and to a control, hMyoD [2] | Results of assays of transcription factor (+/- ligand) with mNPY [3] | Luc. act., normalized to lacZ [3] | Normalized Luc. act., normalized to control [3] | Normalized Luc. act., normalized to control [4] | Luc. act., normalized to lacZ [4] | mUCP3 promoter reporter activity [4] | Luc. act., normalized to lacZ [5] | Normalized Luc. act., normalized to control [5] | mDio2 promoter reporter activity [5] | Luc. act., normalized to lacZ [6] | Normalized Luc. act., normalized to control [6] | mABCA1 promoter reporter activity [6]
1 | B1 | 1.22 | 38.6 | 1.2 | 86.5 | 1.4 | 1.36 | 0.91 | 76.5 | 0.9 | 2.4 | 1.6 | 2.38 | 58.7 | 3.7 | 3.74 | 29.4 | 5.2 | 5.23
2 | B2 | 1.05 | 33.3 | 1.1 | 75.0 | 1.2 | 1.18 | 1.09 | 91.9 | 1.1 | 1.2 | 0.8 | 1.24 | 21.5 | 1.4 | 1.37 | 46.3 | 8.3 | 8.25
3 | B3 | 1.44 | 45.5 | 1.4 | 54.6 | 0.9 | 0.86 | 0.81 | 68.0 | 0.8 | 1.7 | 1.2 | 1.73 | 18.1 | 1.2 | 1.15 | 46.3 | 8.3 | 8.25
4 | B4 | 0.58 | 18.2 | 0.6 | 47.3 | 0.7 | 0.75 | 0.90 | 75.4 | 0.9 | 2.6 | 1.7 | 2.56 | 47.2 | 3.0 | 3.01 | 33.0 | 5.9 | 5.87

— US20110263454A1, “Methods of Identifying Functional Characteristics of Promoters, Transcription Modifying Proteins and Transcription Modulating Agents” (Salk Institute for Biological Studies, priority 2008, published 2011)
